Measured values from patent publication US20170088585A1 (BAR ILAN UNIVERSITY, published 2017).
Square brackets hold non-standard residues; d marks the D form.

What follows are binders tested against Aβ40 (UniProt P05067 672-711) (assay: cell-based or functional assay).
Sequence of Aβ40 (P05067 672-711 limits assumed): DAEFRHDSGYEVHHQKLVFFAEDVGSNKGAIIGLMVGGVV

| Binder | Inhibition at 1:1 (ThT assay, Aβ:cyclic peptide) [%] | Inhibition at 1:1/3 (ThT assay, Aβ:cyclic peptide) [%] |
| --- | --- | --- |
| cyclo([dL]L[dW]H[dS]K) (SMILES CC(C)C[C@@H]1NC(=O)[C@@H](CC(C)C)NC(=O)[C@H](CCCCN)NC(=O)[C@@H](CO)NC(=O)[C@H](Cc2c[nH]cn2)NC(=O)[C@@H](Cc2c[nH]c3ccccc23)NC1=O) [[lLwHsK]: Cyclo-D-leucine-L-leucine-D-tryptophan-L-histidine-D-serine-L-lysine] | 60 | 32 |
| cyclo([dL]L[dW]H[dS]A) (SMILES CC(C)C[C@@H]1NC(=O)[C@@H](CC(C)C)NC(=O)[C@H](C)NC(=O)[C@@H](CO)NC(=O)[C@H](Cc2c[nH]cn2)NC(=O)[C@@H](Cc2c[nH]c3ccccc23)NC1=O) [[lLwHsA]: Cyclo-D-leucine-L-leucine-D-tryptophan-L-histidine-D-serine-L-alanine] | 67 | 48 |
| cyclo([dL]L[dW]H[dA]K) (SMILES CC(C)C[C@@H]1NC(=O)[C@@H](CC(C)C)NC(=O)[C@H](CCCCN)NC(=O)[C@@H](C)NC(=O)[C@H](Cc2c[nH]cn2)NC(=O)[C@@H](Cc2c[nH]c3ccccc23)NC1=O) [[lLwHaK]: Cyclo-D-leucine-L-leucine-D-tryptophan-L-histidine-D-alanine-L-lysine] | 56 | 47 |
| cyclo([dL]L[dW]A[dS]K) (SMILES CC(C)C[C@@H]1NC(=O)[C@@H](CC(C)C)NC(=O)[C@H](CCCCN)NC(=O)[C@@H](CO)NC(=O)[C@H](C)NC(=O)[C@@H](Cc2c[nH]c3ccccc23)NC1=O) [[lLwAsK]: Cyclo-D-leucine-L-leucine-D-tryptophan-L-alanine-D-serine-L-lysine] | 73 | 49 |
| cyclo([dL]L[dA]H[dS]K) (SMILES CC(C)C[C@@H]1NC(=O)[C@@H](CC(C)C)NC(=O)[C@H](CCCCN)NC(=O)[C@@H](CO)NC(=O)[C@H](Cc2c[nH]cn2)NC(=O)[C@@H](C)NC1=O) [[lLaHsK]: Cyclo-D-leucine-L-leucine-D-alanine-L-histidine-D-serine-L-lysine] | 4 | 5 |
| cyclo([dL]A[dW]H[dS]K) (SMILES CC(C)C[C@H]1NC(=O)[C@H](CCCCN)NC(=O)[C@@H](CO)NC(=O)[C@H](Cc2c[nH]cn2)NC(=O)[C@@H](Cc2c[nH]c3ccccc23)NC(=O)[C@H](C)NC1=O) [[lAwHsK]: Cyclo-D-leucine-L-alanine-D-tryptophan-L-histidine-D-serine-L-lysine] | 44 | 3 |
| cyclo([dA]L[dW]H[dS]K) (SMILES CC(C)C[C@@H]1NC(=O)[C@@H](C)NC(=O)[C@H](CCCCN)NC(=O)[C@@H](CO)NC(=O)[C@H](Cc2c[nH]cn2)NC(=O)[C@@H](Cc2c[nH]c3ccccc23)NC1=O) [[aLwHsK]: Cyclo-D-alanine-L-leucine-D-tryptophan-L-histidine-D-serine-L-lysine] | 53 | 12 |
